Test [1] addresses T1, TLR4 (Homo sapiens, UniProt O00206+Q9Y6Y9).
T1 construct: alginate cultures of human chondrocytes from healthy volunteers were supplied by Articular Engineering, LLC; host or cells: primary human chondrocytes in alginate culture (healthy volunteers; osteoarthritis patients)
The settings on record: positive control; stated as known; cited from earlier work.

The target of test [2] is T1, TLR4. Nature of the test: 35S incorporation into S-GAG in alginate cultures of human chondrocytes from healthy volunteers. Format: cell-based. The method, then: For these experiments, alginate cultures of human chondrocytes from healthy volunteers were supplied by Articular Engineering, LLC (Northbrook, Ill.) and were maintained as directed by the supplier. “Control” chondrocytes were untreated. “LPS” treated chondrocytes were treated with LPS at a concentration of 1 μg/ml in the media for three days starting at Day 2. “LPS+polymixin B” treated chondrocytes were treated for 1 hour with the […] polymixin B, which is a TLR4 antagonist, at a concentration of 20 μg/ml followed by treatment with the TLR4 receptor agonist LPS at a concentration of 1 μg/ml in the media for three days starting at Day 2. “LPS+TLR4-ECD” treated chondrocytes were treated starting at Day 0 with the TLR4 antagonist TLR4-ECD at a concentration in the media of 50 μg/ml followed by treatment with LPS at a concentration of 1 μg/ml in the media for three days starting at Day 2. TLR4-ECD is a TLR4 receptor antagonist comprising the extracellular domain of hTLR4A and the Fc domain of an IgG1 isotype antibody. TLR4-ECD has the amino acid sequence shown in SEQ ID NO: 4 and is encoded by the cDNA having the nucleic acid sequence shown in SEQ ID NO: 3. […] On Day 5 alginate bead chondrocyte cell cultures were ^35S labelled overnight and ^35S incorporation into S-GAG (sulfated glycosaminoglycan) was then determined as described by Bobacz et al. 56 Arthritis. […]

For test [3], the target named is T1, TLR4. Nature of the test: 35S incorporation into S-GAG in alginate cultures of human chondrocytes from osteoarthritis patients. Format: cell-based. The method, then:
For these experiments, alginate cultures of human chondrocytes from healthy volunteers were supplied by Articular Engineering, LLC (Northbrook, Ill.) and were maintained as directed by the supplier. “Control” chondrocytes were untreated. “LPS” treated chondrocytes were treated with LPS at a concentration of 1 μg/ml in the media for three days starting at Day 2. “LPS+polymixin B” treated chondrocytes were treated for 1 hour with the […] polymixin B, which is a TLR4 antagonist, at a concentration of 20 μg/ml followed by treatment with the TLR4 receptor agonist LPS at a concentration of 1 μg/ml in the media for three days starting at Day 2. […] On Day 5 alginate bead chondrocyte cell cultures were ^35S labelled overnight and ^35S incorporation into S-GAG (sulfated glycosaminoglycan) was then determined as described by Bobacz et al. 56 Arthritis. […]
For these experiments, alginate cultures of human chondrocytes from osteoarthritis patients were supplied by Articular Engineering, LLC (Northbrook, Ill.) and were maintained as directed by the supplier. […] At Day 5 alginate bead chondrocyte cell cultures were ^35S labelled overnight and ^35S incorporation into S-GAG (sulfated glycosaminoglycan) was then determined as described by Bobacz et al. 56 Arthritis. […]

T1 sequence (O00206 24-839): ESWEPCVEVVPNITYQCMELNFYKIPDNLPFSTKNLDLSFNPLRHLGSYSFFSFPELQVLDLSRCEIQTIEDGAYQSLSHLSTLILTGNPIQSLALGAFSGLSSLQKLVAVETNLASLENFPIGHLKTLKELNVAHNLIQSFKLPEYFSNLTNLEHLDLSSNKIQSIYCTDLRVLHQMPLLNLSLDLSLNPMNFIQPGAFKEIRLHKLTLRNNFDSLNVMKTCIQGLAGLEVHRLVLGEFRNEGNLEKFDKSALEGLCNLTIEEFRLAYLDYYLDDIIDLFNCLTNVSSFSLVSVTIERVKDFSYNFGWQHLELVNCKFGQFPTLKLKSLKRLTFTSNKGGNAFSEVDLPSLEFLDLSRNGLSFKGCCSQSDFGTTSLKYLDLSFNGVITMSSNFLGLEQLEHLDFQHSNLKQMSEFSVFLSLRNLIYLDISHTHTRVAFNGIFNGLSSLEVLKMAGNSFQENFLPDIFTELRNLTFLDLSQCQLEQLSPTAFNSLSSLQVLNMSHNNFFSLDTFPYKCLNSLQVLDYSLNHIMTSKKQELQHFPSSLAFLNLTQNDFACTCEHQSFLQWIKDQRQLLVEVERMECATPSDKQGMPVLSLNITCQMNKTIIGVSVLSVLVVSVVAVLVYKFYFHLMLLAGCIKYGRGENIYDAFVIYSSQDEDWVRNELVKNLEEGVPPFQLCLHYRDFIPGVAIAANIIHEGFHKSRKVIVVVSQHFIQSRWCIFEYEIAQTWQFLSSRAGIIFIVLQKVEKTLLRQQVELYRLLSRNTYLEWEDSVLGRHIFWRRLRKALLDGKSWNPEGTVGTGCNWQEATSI
T1 sequence (Q9Y6Y9 17-160 limits assumed): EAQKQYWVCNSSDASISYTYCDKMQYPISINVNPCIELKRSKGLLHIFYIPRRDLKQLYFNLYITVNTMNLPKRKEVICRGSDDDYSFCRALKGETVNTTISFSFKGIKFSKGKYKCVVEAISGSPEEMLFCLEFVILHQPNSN

Take “IGF1: Insulin-like Growth Factor 1, used as a positive control”: in the test with TLR4 [1], the “sGAG synthesis by human chondrocytes” value is given as “stimulate sGAG synthesis”.

In the case of “hTLR4-ECD: TLR4 receptor antagonist comprising the extracellular domain of hTLR4A and the Fc domain of an IgG1 isotype antibody; preparations contained approximately 25% MD2”, the S-GAG synthesis entry in the test with TLR4 [2] (hTLR4-ECD 50 μg/ml from Day 0 + LPS 1 μg/ml from Day 2, relative to LPS alone (FIG. 18)) was “increased S-GAG synthesis relative to chondrocytes treated with LPS alone”; with TLR4 [2] (hTLR4-ECD alone 50 μg/ml from Day 0, relative to LPS alone (FIG. 18)), “increased S-GAG synthesis relative to chondrocytes treated with LPS alone”; in the test with TLR4 [3] (hTLR4-ECD 50 μg/ml from Day 0 + LPS 1 μg/ml from Day 2, relative to LPS alone (FIG. 19)) it was “increased S-GAG synthesis relative to chondrocytes from osteoarthritis patients treated with LPS alone”; in the test with TLR4 [3] (hTLR4-ECD alone 50 μg/ml from Day 0, relative to LPS alone (FIG. 19)), “increased S-GAG synthesis relative to chondrocytes from osteoarthritis patients treated with LPS alone”.
